Assay [1] has as its system P. aeruginosa. Kind of assay: MIC, modified CLSI broth microdilution in CAA medium without or with […] human serum (Table 4). For CAA/HuS MIC: CAA supplemented with 2.5% human serum. Format: cell-based, Pseudomonas aeruginosa. As to conditions: for CAA MIC: CAA medium, no human serum; for CAA/HuS MIC: CAA supplemented with […] human serum. From the text:
2015. […] Clinical and Laboratory Standards Institute, Wayne, Pa.
For orientation: Dilution methods test growth across graded concentrations, often in twofold steps.

The test system of assay [2] is Pseudomonas aeruginosa strain CFS-1292 (meropenem resistant). Conditions: for MIC in 25% CAA: strain CFS-1292, no added cations; for Fold Increase (MIC) in presence of cations: CFS-1292. On the procedure: The activity of selected GN lysins and constructs in the presence of divalent cations was evaluated, and the impact of divalent cations at physiological concentrations was examined in the MIC assay format.

Assay [3] relates to P. aeruginosa strain WC-453. Kind of assay: Time-kill assay in HEPES or CAA with 25% human serum (Tables 7, 8). It counts as cell-based, Pseudomonas aeruginosa. Conditions: for bactericidal activity (CFU decrease of 3-Log10, 3 hours after the addition of lysin): 10 μg/mL, enumerated lysins in CAA/HuS, general statement for HEPES and CAA/HuS; for CAA/HuS (Log10 CFU/mL), 1 hr / CAA/HuS (Log10 CFU/mL), 3 hr: CAA + 25% human serum, lysin 10 μg/ml, WC-453. The procedure:
Exponential phase bacteria were then pelleted and resuspended in 1/5 culture volume of 25 mM HEPES, pH 7.4 before a final adjustment to an optical density corresponding to a McFarland value of 0.5. […] All treatments were incubated at 37° C. with aeration. At time points before the addition of lysin (or buffer control) and at 1 hour and 3 hours intervals thereafter, culture samples were removed for quantitative plating on CAA agar plates.

Assay [4] relates to biofilms formed by P. aeruginosa strain ATCC 17646. As to conditions: strain ATCC 17646 biofilm. On the procedure:
Biofilms are then washed and treated with e.g., a 2-fold dilution series of the lysin in TSBg at e.g., 37° C. for 24 hours. After treatment, wells are washed, air-dried at e.g., 37° C. and stained with e.g., 0.05% crystal violet for 10 minutes.

Assay [5] concerns P. aeruginosa isolate CFS-1292. Kind of assay: MIC in CAA supplemented with a range of […] concentrations (Table 10). Format: cell-based, Pseudomonas aeruginosa.
For assay [6], the system named is carbepenam-resistant clinical isolate WC-453. Kind of assay: MIC in CAA without or with 25% human serum (Table 5). It counts as cell-based, Pseudomonas aeruginosa. The procedure: MIC values were determined using a modification of the standard broth microdilution reference method defined by the Clinical and Laboratory Standards Institute (CLSI), CLSI. […] Methods for Dilution Antimicrobial Susceptibility Tests for Bacteria That Grow Aerobically; Approved Standard-10th Edition. Clinical and Laboratory Standards Institute, Wayne, Pa.

Where two headings read alike, the source gives them in different places.

B1: GN329: lysin, SEQ ID NO: 26 (protein)
chain: MITDREYQQAAEMLGVDVPAIKAVTKVEAPVGGFQPTGEPTILYERHQMYRQLQAKGLPTEGHPPDLVNKVAGGYGKYSEQHAKLARAVKIDRDSALESCSWGMFQIMGYHWKLMGYPTLQAFVNAMYASEGAQMDAFCRFIKAQPTTHAALKAHDWAKFARLYNGPGYAKNKYDVKLEKAYAEASG
modifications: Pseudomonas phage KPP10
B1: in assay [1], the “CAA MIC” value turned out to be 4000 µg/mL and the “CAA/HuS MIC” value was found to be 250 µg/mL. Besides, the “MIC in 25% CAA” value in assay [2] was found to be 4 µg/mL. In addition, in assay [3], the “bactericidal activity (CFU decrease of 3-Log10, 3 hours after the addition of lysin)” value is listed as “bactericidal activity”; the “CAA/HuS (Log10 CFU/mL), 1 hr” value is recorded as 4.4 Log10 CFU/mL; the “CAA/HuS (Log10 CFU/mL), 3 hr” value was under 3.7 Log10 CFU/mL. The MBEC in assay [4] was 0.5 µg/mL.

B2: GN156: GPRRPRRPGRRAPV introduced at the N terminus of GN4 (SEQ ID NO: 126) (protein)
chain: GPRRPRRPGRRAPVRTSQRGIDLIKSFEGLRLSAYQDSVGVWTIGYGTTRGVTRYMTITVEQAERMLSNDIQRFEPELDRLAKVPLNQNQWDALMSFVYNLGAANLASSTLLKLLNKGDYQGAADQFPRWVNAGGKRLDGLVKRRAAERALFLEPLS
In the case of B2, the “Fold Increase (MIC) in presence of cations” value is listed as 1 fold in assay [2] (25% CAA + […] CaCl2 (high)); 2 fold in assay [2] (25% CAA + […] CaCl2 (low)); 2 fold in assay [2] (25% CAA + […] CaCl2 (medium)); 2 fold in assay [2] (25% CAA + […] CaCl2 and […] MgCl2); 2 fold in assay [2] (25% CAA + […] MgCl2 (high)); 2 fold in assay [2] (25% CAA + […] MgCl2 (low)). Moreover, the “Fold Increase (MIC) in presence of cations” value in assay [2] (25% CAA + […] MgCl2 (medium)) worked out at 2 fold. For the same molecule, the “MIC in 25% CAA” value in assay [2] was determined as 2 µg/mL. For the same molecule, the “fold increase in MIC with SURVANTA” value was determined as 1 fold in assay [5] (0.09% SURVANTA), 1 fold in assay [5] (0.19% SURVANTA), 2 fold in assay [5] (1.56% SURVANTA) and 2 fold in assay [5] (3.15% SURVANTA).

B3: GN333: lysin obtained from Delftia sp. (SEQ ID NO: 28) (protein, listed as Delftia sp.)
chain: MALTEQDFQSAADDLGVDVASVKAVTKVESRGSGFLLSGVPKILFERHWMFKLLKRKLGRDPEINDVCNPKAGGYLGGQAEHERLDKAVKMDRDCALQSASWGLFQIMGFHWEALGYASVQAFVNAQYASEGSQLNTFVRFIKTNPAIHKALKSKDWAEFARRYNGPDYKKNNYDVKLAEAYQSFK
Consider B3, for which, in assay [1], the “CAA MIC” value turned out to be 8000 µg/mL and the “CAA/HuS MIC” value was found to be 60 µg/mL. In addition, the “MIC in 25% CAA” value in assay [2] was found to be 8 µg/mL. Also, in assay [3], the “bactericidal activity (CFU decrease of 3-Log10, 3 hours after the addition of lysin)” value is listed as “bactericidal activity”; the “CAA/HuS (Log10 CFU/mL), 1 hr” value was 4.9 Log10 CFU/mL; the “CAA/HuS (Log10 CFU/mL), 3 hr” value is on record as under 3.7 Log10 CFU/mL. The molecule further showed an MBEC in assay [4] of 1 µg/mL.

B4: GN431: lysin obtained from Dickeya phage phiD3 (SEQ ID NO: 64) (protein)
chain: MAILKLGNRGTEVKALQDSLNKIGFTLVADGIFGKATENAVKTVQAGAGLVIDGIVGPKTSYAIRNAGEAHQDHLTEADLIEAANQLGVDLASVKAVNQVESRGTGFTKSGKIKTLFERHIMYKKLMAKFGQARANAMGQMYPTLVSPVAGGYTGGDAELDRLHAAINIDEDCAYESASYGLFQIMGFNCQVCGYANAKEMFNDFLTGERAHLMAFVKFIKADAKLWQALKDKNWAEFARRYNGPAYTKNQYDTKLAAAYNSFN
modifications: Dickeya phage phiD3
Consider B4, for which, in assay [1], the “CAA MIC” value was 8000 µg/mL and the “CAA/HuS MIC” value amounted to 62.5 µg/mL. The “MIC in 25% CAA” value in assay [2] turned out to be 2 µg/mL. Also, in assay [3], the “bactericidal activity (CFU decrease of 3-Log10, 3 hours after the addition of lysin)” value is “bactericidal activity”; the “CAA/HuS (Log10 CFU/mL), 1 hr” value amounted to 5.8 Log10 CFU/mL; the “CAA/HuS (Log10 CFU/mL), 3 hr” value is under 3.7 Log10 CFU/mL. In addition, the MBEC in assay [4] worked out at 1 µg/mL.

B5: GN316: lysin obtained from Klebsiella phage 0507-KN2-1 (SEQ ID NO: 22) (protein)
chain: MAILKIGSKGLEVKNLQTSLNKIGFNLVADGIFGKATDNAVRAVQAGAGLVVDGIAGPKTMYAIRNAGESHQDHLTEADLIDAARELSVDLASIKAVNQVESRGTGFTKSGKIKTLFERHIMYKKLNAKFGQAKANALAQLYPTLVNAKAGGYTGGDAELERLHGAIAIDKDCAYESASYGLFQIMGFNCVICGYDNAEEMFNDFLTGERAQLMAFVKFIKADANLWKALKDKNWAEFARRYNGPAYAQNQYDTKLAAAYKSFS
modifications: (1)..(264) GN316 lysin
In the case of B5, in assay [1], the “CAA MIC” value was 16000 µg/mL and the “CAA/HuS MIC” value was found to be 125 µg/mL. Further, in assay [6], the “activity in CAA supplemented with human serum (25%)” value is “active”. The “CAA MIC” value in assay [6] (CAA) was determined as 16. The “CAA/HuS MIC” value in assay [6] (CAA supplemented with 25% human serum) is under 0.0625. Further, the “MIC in 25% CAA” value in assay [2] is 4 µg/mL. In assay [3], the “bactericidal activity (CFU decrease of 3-Log10, 3 hours after the addition of lysin)” value is “bactericidal activity”; the “CAA/HuS (Log10 CFU/mL), 1 hr” value stood at 5.1 Log10 CFU/mL; the “CAA/HuS (Log10 CFU/mL), 3 hr” value is reported as under 3.7 Log10 CFU/mL. The same molecule had an MBEC in assay [4] of 1 µg/mL.

Source of the values: patent US20210324359A1, “USE OF GRAM-NEGATIVE LYSIN-ANTIMICROBIAL PEPTIDE (AMP) POLYPEPTIDE CONSTRUCTS IN TREATING ENDOCARDITIS” (priority 2020, published 2021).
